Measurements reported in ChEMBL document CHEMBL1151808, “Substrate promiscuity of the cyclic dipeptide prenyltransferases from Aspergillus fumigatus ( section sign)” (J Nat Prod, 2009).

Legend:
[1] = substrate: O=C1N[C@@H](Cc2c[nH]c3ccccc23)C(=O)N2CCC[C@@H]12; assay: (§1) Activity at Aspergillus fumigatus FtmPT1 by HPLC analysis
[2] = substrate: N[C@@H](Cc1c[nH]c2ccccc12)C(=O)O; assay: as §1

B1: Tryprostatin B synthase ftmPT1 (Aspergillus fumigatus), Q4WAW7 (protein)
chain: MPPAPPDQKPCHQLQPAPYRALSESILFGSVDEERWWHSTAPILSRLLISSNYDVDVQYKYLSLYRHLVLPALGPYPQRDPETGIIATQWRSGMVLTGLPIEFSNNVARALIRIGVDPVTADSGTAQDPFNTTRPKVYLETAARLLPGVDLTRFYEFETELVITKAEEAVLQANPDLFRSPWKSQILTAMDLQKSGTVLVKAYFYPQPKSAVTGRSTEDLLVNAIRKVDREGRFETQLANLQRYIERRRRGLHVPGVTADKPPATAADKAFDACSFFPHFLSTDLVEPGKSRVKFYASERHVNLQMVEDIWTFGGLRRDPDALRGLELLRHFWADIQMREGYYTMPRGFCELGKSSAGFEAPMMFHFHLDGSQSPFPDPQMYVCVFGMNSRKLVEGLTTFYRRVGWEEMASHYQGNFLANYPDEDFEKAAHLCAYVSFAYKNGGAYVTLYNHSFNPVGDVSFPN
Km [1]: 55 µM
kcat [1]: 5.57 s⁻¹
Km [2]: 820 µM
kcat [2]: 0.12 s⁻¹
